Several values for one entry are separate records, joined by “and”; a condition that tells them apart may be missing. Identical values can stand only once.
B1: His6-MBP:CtermCNGC15a (domain or fragment)
chain: GNMQTYLQSTTIRLEEWRIRRTDTERWMHHRQLPHYLKENVRRHDQFRWVATRGVDEEAILRDLPVDLRRDIKRHLCLNLVRQVPLFDQMDDRMLDAICERLKPTLCTPGTCIVREGDPVDEMLFIVRGRLDSCTTNGGRTGFFNTCRIGSGDFCGEELLPWALDPRPTAVLPSSTRTVRAITEVEAFALIAEDLKFVAAQFRRLHSKQLRQTFRFYSHQWRTWAACFIQAAWFRYKRMKETNEVKEKENLMMMSNVKYYGNDDSQYFSAPLQVPKGSSYSMYSGKLVGSLRRGRSMRYGSELDMLGTLRKPIEPDFNDDGD
B2: His6-MBP:CtermCNGC15b (domain or fragment)
chain: GNMQTYLQSTTVRLEEWRVKRTDTEQWMHHRQLPQELRQSVRKYDQYKWIATRGVDEESLLRGLPLDLRRDIKRHLCLELVRRVPLFDAMDERMLDAICERLKPALCTENTYLVREGDPVNEMLFIIRGNLDSYTTDGGRTGFFNSCRIGPGDFCGEELLTWALDPRPTMVIPSSTRTVKAISEVEAFALIAEDLKFVASQFRRLHSKQLRNKLRFHSHQWRTWAACFIQVAWRRTIQEKKGSC
B3: His6-MBP:CtermCNGC15c (domain or fragment)
chain: LIGNMQTYLQSITVRLEEWRVKRTDTEQWMHHRQLPPELRESIRKYNQYKWVATRGVEEEDLLKGLPLDLRREIKRHLCLELVRGVPLFDQMDERMLDAICERLKPALCTEGTYLVREGDPVNEMLFIIRGHLDSYTTNGGRDGFFNSCRIGPGDFCGEELLTWALDPRPSVILPSSTRTVKAFSEVEAFALIAEDLKFVASQFRRLHSKQLRHKFRFYSHQWRTWAACFIQAAWRRHKKRKEAAELRAKENLVAASEAENEIAKKYGKGFVVYGTRVARSTRKGVNMHSGTNSGVVSSLQKPTEPDFSDE

How the values were obtained:
[1] = target: T1, calmodulin 2 (CaM2), purified recombinant protein (M. truncatula); assay: BLI; 20 mM CaCl2
[2] = target: T1, calmodulin 2 (CaM2), purified …; assay: BLI; 20 mM CaCl2; remark: listed apart in the source
[3] = target: T1, calmodulin 2 (CaM2), purified …; assay: ITC; 5 mM CaCl2

Binder	Kd [1] [µM]	koff [2] [s⁻¹]	Kd [3]
B1	526	0.77	–
AACFIQVAWRRTIQEKKG [CNGC15b-IQ peptide]	–	–	1390 nM
B2	59	0.43	–
B3	14.6	0.077	–
AACFIQAAWRRHKKRKEA [CNGC15c-IQ peptide]	–	–	644 nM and 640 nM

From PMC9060481 (2022)
